Test results: the supplement of paper PMC11780869

System: Bacillus subtilis
Test: cleaved RNA product abundance (RNA/gDNA barcode ratio) relative to median wild-type variant (ratio to wild type); higher = more accumulation of the downstream cleavage product
Procedure, shortened: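 Oligos with a 9% error rate were used to build barcoded, mutagenized RNase Y cleavage-site windows within truncated aprE or tetM reporter mRNAs, which were integrated into the B. subtilis chromosome. Cultures were grown in LB at 37°C between OD600 0.0003 and 0.3. Cleaved RNA was gel-selected, reverse transcribed and barcode-sequenced, as were genomic DNA barcodes, and UMIs were collapsed. Cleaved product abundance is the scaled RNA:gDNA barcode ratio, with the median construct carrying the unmutated site as reference.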

[1] = experiment (reporter, strain, medium): exp 4a: truncated aprE reporter, strain BJT201 with 2% xylose (RNase J1 expressed), cleavage site: cggR-gapA (positions -7 to +36 mutated)
[2] = experiment (reporter, strain, medium): exp 2b: truncated aprE reporter, strain BJT200, cleavage site: cggR-gapA (positions -7 to +36 mutated)
[3] = experiment (reporter, strain, medium): exp 8a: truncated aprE reporter, strain BJT201 with 2% xylose (RNase J1 expressed), cleavage site: glnRA (positions -5 to +31 mutated)
[4] = experiment (reporter, strain, medium): exp 6: tetM reporter, strain 168, cleavage site: cggR-gapA (positions -7 to +36 mutated)

Sequence	cleaved RNA product abundance [1]	cleaved RNA product abundance [2]	cleaved RNA product abundance [3]	also measured
ACAGACGAAGGAGCCGCAAAGAATCTATTAAGGGATGAATAATCCCTCAATATAAATATCTCTCACTTATTTAAA	0.689	–	–	–
ACAGACGAAGGAGCCGCGAAGTAGTTATTAAGGGATGAATAATCCCTCAATATAAATATCTCTCACTTATTTAAA	1.29	–	–	–
ACAGACGAAGGAGCCGCAAAGAAGTTATTAAGGGATGAATAATCCCTCAATATAAATATCTCTACTTATTTAAAG	–	1.09	–	–
ACAGACGAAGGAGCCGCAAAGAAGTTATTAAGGAATGAATAATCCCTCAGTATAAATATCTCTCACTTATTTAAA	0.15	–	–	–
CGACATGTCCCGCTTCTTTCATTAATCCTTTAGCAACTGTTTTGCTATATACAATTACCTTTTAAGAGGAGGAAT	–	–	0.889	–
ACAGACGAAGGAGCCGCAAAGAATTTATTAAGGGATGAATAATCGCTCAATATAAATATCTCTCACTTATTTAAA	0.0604	0.105	–	–
ACAGACGAAGGAGCCGCAAAGAAGTTATTAAGAGATGAATAATCCCTCAATATATATATCTCTCACTTATTTAAA	0.14	0.129	–	–
CGACATGTCCCGCTTCTTTCATTAATCCGTTAGCAATTGTTTTGCTATATGCATTTACCTTTTAAGAGGAGGAAT	–	–	0.232	–
ACAGACGAAGGAGCCGCAAAGAAGTTAATAAGGGATGAATAGTCCCTCAATATAAATATCTCTCACTTATTTAAA	0.263	–	–	–
ACAGACGAAGGAGCCGCAAAGAAGTTATTAAGTGATGAATAATCCCTCAATATACATATCTCTCACTTATTTAAA	0.19	0.0962	–	–
ACAGACGAAGGAGCCGCAAAGAACTTATTAAGGGATGAATTATCCCTCAATATAAATATCTCTCACTTATTTAAA	0.31	0.284	–	–
ACAGACGAAGGAGCCGCAAAGAAGTTATTAAGGGATTAATAATCCCCCAATATAAATATCTCTCACTTATTTAAA	0.272	–	–	–
ACAGACGAAGGAGCCGCAAAGAAGTTATTAAGTGATGAATAATCCCTCAATATAAATACCTCTCACTTATTTAAA	0.105	–	–	–
ACAGACGAAGGAGCCGCAAAGAAGTTATTAAGGGATGAATAATCCCCCTATATAAATATCTCTCACTTATTTAAA	0.151	–	–	–
ACAGACGAAGGAGCCGCAAAGAACTTATTAAGCGATGAATAATCCCTCAATATAAATATCTCTCACTTATTTAAA	0.157	0.0844	–	–
CGACATGTCCCGCTTCTTTCATTAATCCGTTAGTTACTGTTTTGCTATATACATTTACCTTTTAAGAGGAGGAAT	–	–	0.365	–
ACAGACGAAGGAGCCGCAAAGAAGTTATAAAGGGATGAATAATCCCTCAATATAGATATCTCTCACTTATTTAAA	0.475	0.19	–	–
ACAGACGAAGGAGCCGCAAAGAAGTTATTAAGAGATGAATAATCCCTCATTATAAATATCTCTCACTTATTTAAA	0.177	–	–	–
CGACATGTCCCGCTTCTTTCATTAATCCGTTAGCAACTGATTTGCTATATACATTTATCTTTTAAGAGGAGGAAT	–	–	1.36	–
ACAGACGAAGGAGCCGCAAAGAAGTCAATAAGGGATGAATAATCCCTCAATATAAATATCTCTCACTTATTTAAA	0.284	–	–	–

Sequence	cleaved RNA product abundance [1]	cleaved RNA product abundance [2]	cleaved RNA product abundance [3]	also measured
ACAGACGAAGGAGCCGCAAAGAAGTTATTACCGGATGAATAATCCCTCAATATAAATATCTCTCACTTATTTAAA	0.155	–	–	–
CGACATGTCCCGCTTCTTTCATTAATCCGTTAGCATCTGTTTTGATATATACATTTACCTTTTAAGAGGAGGAAT	–	–	0.491	–
ACAGACGAAGGAGCCGCAAAGAAGTTATAATGGGATGAATAATCCCTCAATATAAATATCTCTCACTTATTTAAA	0.293	0.29	–	–
CGACATGTCCCGCTTCTTTCATTAATCCGTTATCAACTGTTTTGCTATATACTTTTACCTTTTAAGAGGAGGAAT	–	–	0.295	–
CGACATGTCCCGCTTCTTTCATTAATCCGTTAGCAACTGTTTGGCTATATACATTTACGTTTTAAGAGGAGGAAT	–	–	0.403	–
ACAGACGAAGGAGCCGCAAAGAAATTATTAAGGGATGAATAATCCCTAAATATAAATATCTCTCACTTATTTAAA	0.667	0.458	–	–
CGACATGTCCCGCTTCTTTCATTAATCCGTTAGTAACTGTTTTGCGATATACATTTACCTTTTAAGAGGAGGAAT	–	–	0.29	–
CGACATGTCCCGCTTCTTTCATTATTCCGTTAGCAACTGTTTTGCTATATAGATTTACCTTTTAAGAGGAGGAAT	–	–	1.02	–
ACAGACGAAGGAGCCGCAAAGAAGTTATTAAGGGATGAATAATCCCTCAATATAACTATCTCTCACTTATTTAAA	0.146	0.201	–	cleaved RNA product abundance [4]: 0.267
CGACATGTCCCGCTTCTTTCATTAATCCATTAGCAACTGTATTGCTATATACATTTACCTTTTAAGAGGAGGAAT	–	–	0.279	–
ACAGACGAAGGAGCCGCCAAGAAGTTATTAAGGGATGAATAATCCCTCACTATAAATATCTCTCACTTATTTAAA	–	0.191	–	–
ACAGACGAAGGAGCCGCGAAGAAGTTATTAAGGGATGAATAATACCTCAATATAAATATCTCTCACTTATTTAAA	0.117	–	–	–
CGACATGTCCCGCTTCTTTCATTAATCCGTTATCAACTGTTTTTCTATATACATTTACCTTTTAAGAGGAGGAAT	–	–	0.393	–
CGACATGTCCCGCTTCTTTCATTAACCCGTTAGCAACTGTTTTGCTATATAAATTTACCTTTTAAGAGGAGGAAT	–	–	0.627	–
CGACATGTCCCGCTTCTTTCATTAATCCATTAGCAACTGTTTTGCTATATACTTTTACCTTTTAAGAGGAGGAAT	–	–	0.253	–
ACAGACGAAGGAGCCGCAATGAAGTTATTAAGGGATGAATAATCCTTCAATATAAATATCTCTCACTTATTTAAA	0.581	–	–	–
ACAGACGAAGGAGCCGCGAAGAAGTTATTAAGGGATGAATAATCTCTCAATATAAATATCTCTCACTTATTTAAA	0.671	–	–	–
ACAGACGAAGGAGCCGCATAGAAGTTATTAAGCGATGAATAATCCCTCAATATAAATATCTCTCACTTATTTAAA	0.122	–	–	–
ACAGACGAAGGAGCCGCATAGAAGTTACTAAGGGATGAATAATCCCTCAATATAAATATCTCTCACTTATTTAAA	0.221	0.24	–	–
CGACATGTCCCGCTTCTTTCATTAATCCGTTAGCAACTGTTTTCCTATATACATATACCTTTTAAGAGGAGGAAT	–	–	0.353	–

Sequence	cleaved RNA product abundance [1]	cleaved RNA product abundance [2]	cleaved RNA product abundance [3]	also measured
ACAGACGAAGGAGCCGCAAAGAAGTTCTTAAAGGATGAATAATCCCTCAATATAAATATCTCTCACTTATTTAAA	0.112	–	–	–
CGACATGTCCCGCTTCTTTCATTAATACGTTAGCAACTGTTTTGCTACATACATTTACCTTTTAAGAGGAGGAAT	–	–	0.381	–
CGACATGTCCCGCTTCTTTCATTAATTCGTTAGCAACTGTTTTGCTATATAAATTTACCTTTTAAGAGGAGGAAT	–	–	1.12	–
ACAGACGAAGGAGCCGCAAAGAAGTTATTAAGGGATGAATAATCCCACAAGATAAATATCTCTCACTTATTTAAA	0.187	0.158	–	–
CGACATGTCCCGCTTCTTTCATTAATCCGTTAGCCACTATTTTGCTATATACATTTACCTTTTAAGAGGAGGAAT	–	–	0.358	–
ACAGACGAAGGAGCCGCAAAGAAGTTATTAAGGGATGAACAATCCCTCAATATTAATATCTCTCACTTATTTAAA	0.189	–	–	–
ACAGACGAAGGAGCCGCAAAGAAGTTATTAAGGGATGAATAATCCCTCAATCTAAATATCTCTCACTTATTTAAA	0.138	0.126	–	cleaved RNA product abundance [4]: 0.193
ACAGACGAAGGAGCCGCAAAGAAGTTATTAGGTGATGAATAATCCCTCAATATAAATATCTCTCACTTATTTAAA	0.331	–	–	–
ACAGACGAAGGAGCCGCAAAGAAGTTATTAAGGGATGAATACTCCATCAATATAAATATCTCTCACTTATTTAAA	0.137	0.102	–	cleaved RNA product abundance [4]: 0.152
CGACATGTCCCGCTTCTTTCATTAATCCGTTAGAAACTGTTTTGCTATATACATTTACCTTTTAAGAGGAGGAAT	–	–	0.292	–
ACAGACGAAGGAGCCGCAAAGAAGTTATTAAGGGATGAATAATCCATCTATATAAATATCTCTCACTTATTTAAA	–	0.191	–	–
ACAGACGAAGGAGCCGCAAAGAAGTTATCAAGGGATGAATAATACCTCAATATAAATATCTCTCACTTATTTAAA	0.132	0.149	–	–
ACAGACGAAGGAGCCGCAAACAAGTTATTAAGGGATGACTAATCCCTCAATATAAATATCTCTCACTTATTTAAA	0.522	0.557	–	–
ACAGACGAAGGAGCCGCTAAGAAGTTATTAAGGGATGAATAATACCTCAATATAAATATCTCTCACTTATTTAAA	0.15	–	–	–
ACAGACGAAGGAGCCGCAAAGAAGTTATTAAGGGCTGAATAATTCCTCAATATAAATATCTCTCACTTATTTAAA	–	0.0668	–	–
ACAGACGAAGGAGCCGCAAAGAAGTTATTAAGGCATGAATAATCCCTCAATAGAAATATCTCTCACTTATTTAAA	0.0906	–	–	–
ACAGACGAAGGAGCCGCAAAGAAGTTATTTAGGGATGAATAATCCCTCAATATAAATATCTCTCACTTATTTAAA	0.799	0.704	–	cleaved RNA product abundance [4]: 0.636
CGACATGTCCCGCTTCTTTCATTAATCCGTTAGCAACTATTTAGCTATATACATTTACCTTTTAAGAGGAGGAAT	–	–	1.01	–
CGACATGTCCCGCTTCTTTCATTAATCCGTTAGTAACTGTTTTACTATATACATTTACCTTTTAAGAGGAGGAAT	–	–	1.04	–
ACAGACGAAGGAGCCGCAGAGAAGTTATTAAGGGATGAATAATCCATCAATATAAATATCTCTCACTTATTTAAA	0.178	–	–	–
